Measured values published in PMC8429728, “TNK1 is a ubiquitin-binding and 14-3-3-regulated kinase that can be targeted to block tumor growth” (Nature Communications, 2021).
Each block holds one substance with its values, some of them ahead of it.

Assays:
[1] = target: Biotin-(4xPEG)-RNKGISRp… (human); experiment: BLI; biotin-tagged peptide loaded on streptavidin biosensors; 14-3-3ζ 50–1000 nM, 4 s association, 120 s dissociation; 0.001% TBST; 30 °C; Kd = Koff/Kon, mean of 3 runs
14-3-3ζ = 14-3-3ζ (UniProt P63104); experiment: in vitro europium/Cy5 FRET binding assay
[2] = target: FLAG-TNK1 ΔUBA (1–580) (human) (UniProt Q13470); experiment: co-IP; FLAG-TNK1 (WT or mutants) precipitated on anti-DYKDDDDK resin from HEK-293T lysate (10 mM HEPES KOH pH 7.5, 150 mM KCl, 0.01% IGEPAL), 1 h 4 °C, washed with PBS; immunoblotted for 14-3-3 or ubiquitin; in Fig. 2c cells treated with 1 uM kinase inhibitors for 4 h
FLAG-TNK1 ΔUBA (1–580) (human), sequence (Q13470 1-580, stated change not applied): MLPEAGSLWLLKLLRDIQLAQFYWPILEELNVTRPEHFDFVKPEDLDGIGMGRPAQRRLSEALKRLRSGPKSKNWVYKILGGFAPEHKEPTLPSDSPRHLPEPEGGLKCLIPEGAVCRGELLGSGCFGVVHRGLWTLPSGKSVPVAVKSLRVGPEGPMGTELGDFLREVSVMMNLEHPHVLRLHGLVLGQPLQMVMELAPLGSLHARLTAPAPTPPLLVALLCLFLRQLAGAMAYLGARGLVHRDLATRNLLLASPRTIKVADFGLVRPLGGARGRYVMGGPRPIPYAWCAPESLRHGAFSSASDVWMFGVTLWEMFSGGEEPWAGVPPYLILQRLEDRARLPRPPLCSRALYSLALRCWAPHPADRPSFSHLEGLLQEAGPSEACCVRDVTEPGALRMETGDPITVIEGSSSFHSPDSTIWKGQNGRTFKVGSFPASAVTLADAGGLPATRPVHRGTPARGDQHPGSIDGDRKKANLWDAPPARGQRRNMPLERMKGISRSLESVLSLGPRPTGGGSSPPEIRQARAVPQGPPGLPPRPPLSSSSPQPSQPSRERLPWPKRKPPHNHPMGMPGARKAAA

14-3-3 (endogenous, isoform not told), sequence (P63104 whole entry, canonical isoform): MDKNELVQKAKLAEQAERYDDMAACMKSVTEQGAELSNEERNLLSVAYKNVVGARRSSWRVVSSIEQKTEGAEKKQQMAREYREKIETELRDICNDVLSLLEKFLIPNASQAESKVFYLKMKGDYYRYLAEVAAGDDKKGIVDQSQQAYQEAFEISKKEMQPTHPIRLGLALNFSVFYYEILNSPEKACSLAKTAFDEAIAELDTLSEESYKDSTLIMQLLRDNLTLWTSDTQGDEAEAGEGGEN

Kd [1]: 3.39 µM
Substance: 14-3-3ζ (purified, from the GST-14-3-3ζ plasmid) (from UniProt P63104 1-245) (natural protein)

binding against the reference (14-3-3ζ; reference: pS502 mono-phosphorylated peptide, sites S500,S505): lost
Substance: TNK1 (from UniProt Q13470) pS500/pS502/pS505 peptide

binding against the reference (14-3-3ζ; reference: non-phosphorylated peptide, sites S502): gained
Substance: TNK1 (from UniProt Q13470) pS502 peptide

fold increase in interaction with 14-3-3 compared to WT TNK1 [2]: 4 fold
Substance: 14-3-3 (endogenous, isoform not told) (from UniProt P63104 1-245) (natural protein)
